According to patent US20260234738A1 (Regeneron, published 2026):
Values joined by “and” are separate entries in the source; they are usually repeats but may differ in a detail not shown here. Identical values can stand only once.

B1: mAb10913 (antibody, V domains shown)
VH: EVQLVESGGGLVQPGGSLRLSCAASGFTFRNYEMNWVRQAPGKGLEWVSYITSSGSTMYYADSVKGRFTISRDNAKNSLYLQMNSLRAEDTAVYYCARDGFYYYYAMDVWGQGTTVTVSS
VL: QSVLTQPPSVSAAPGQKVTISCSGSSSNIGNNYVSWYQQLPGTAPKLLIYDNNKRPSGIPDRFSGSKSGTSATLGITGLQTGDEADYYCGTWDSSLSVGRVFGTGTKVTVLG
B2: mAb10914 (antibody, V domains shown)
VH: EVQLVESGGGLVQPGGSLRLSCAASGLIVSRNYMIWVRQAPGKGLEWVSVIYSGGSTFYADSVKGRFTISRHNSKNTLYLQMNSLRAEDTAVYYCARDLGTGGMDVWGQGTTVTVSS
VL: DIQLTQSPSFLSASVGDRVTITCWASQGISSYLAWYQQKPGKAPKLLIYAASTLQSGVPSRFSGSGSGTEFTLTISSLQPEDFATYYCQQLNSYPLTFGGGTKVEIKR
B3: mAb10915 (antibody, V domains shown)
VH: EVQLVESGGGLVQPGGSLRLSCAASGFTVSSNYMNWVRQAPGKGLEWVSVIYSGGSTFYADSVKGRFTISRHNSKNTLYLQMNSLRPEDTAVYYCARDLGGYFDYWGQGTLVTVSS
VL: not shown
B4: mAb10920 (antibody, V domains shown)
VH: QVQLVESGGGVVQPGRSLRLSCAASGFTFSYYGMHWVRQAPGKGLEWVAVIWYDGSNKFYADSVKGRFTISRDNSKNTLYLQMNSLRAEDTAVYYCAAARPGYYYGMDVWGQGTTVTVSS
VL: DIQMTQSPSSLSASVGDRVTITCRASQGISNYLAWFQQKPGKAPNSLIYAASSLQRGVPSKFSGSGSGTDFTLTISSLQPEDFATYYCQQYNSYPRTFGQGTKVEIKR
B5: mAb10921 (antibody, V domains shown)
VH: EVQLVESGGGLVQPGGSLRLSCAASGITVSSNYMSWVRQAPGKGLEWVSVIYSGGSTFYADSVKGRFTISRHNSKNTLYLQMNSLRAEDTAVYYCARERNFDAFDIWGQGTMVTVSS
VL: DIQMTQSPSSVSASVGDRVTITCRASQGISSWLAWYQQKPGKAPKLLIYAASSLQSGVPSRFSGSGSGTDFTLTISSLQPEDFATYYCQQANSFPLFTFGPGTKVDIKR
B6: mAb10923 (antibody, V domains shown)
VH: QVQLVQSGAEVKKPGASVKVSCKASGYTFINYYIHWVRQAPGQGLEWMGWINPNSGGTNYAQKFQGRVTMTRDTSISTAYMELSRLRSDDTAVYYCAIITIFGVVTWFDPWGQGTLVTVSS
VL: not shown
B7: mAb10930 (antibody, V domains shown)
VH: EVQLVESGGGLVQPGRSLRLSCAASGFTFDDYAMYWVRQAPGKGLEWVSGISWNSGSIGYADSVKGRFTISRDNAKNSLYLQMNSLRAADTALYYCAKDKDWNSRGYYYYGMDVWGQGTTVTVSS
VL: not shown
B8: mAb10932 (antibody, V domains shown)
VH: EVQLVESGGGLVQSGGSLRLSCAASGLTVSSNYMSWVRQAPGKGLEWVSVIYSGGSTFYSDSVKGRFTISRHNSKNTLYLQMNSLRAEDTAVYYCARARGDAFDIWGQGTMVTVSS
VL: not shown
B9: mAb10934 (antibody, V domains shown)
VH: not shown
VL: DIQMTQSPSSLSASVGDRVTITCQASQDIWNYINWYQQKPGKAPKLLIYDASNLKTGVPSRFSGSGSGTDFTFTISSLQPEDIATYYCQQHDDLPPTFGQGTKVEIKR
B10: mAb10935 (antibody, V domains shown)
VH: EVQLVESGGGLVQPGGSLRLSCAASGFTVSSNYMSWVRQAPGKGLEWVSLIYSGGSTYYADSVKGRFTISRHNSKNTLYLQMNSLRSEDTAVYYCARVPLGDYYYGMDVWGQGTTVTVSS
VL: DIQMTQSPSSLSASVGDRVTITCQASQDINKYLNWYQQKPGKAPKLLIYDASNLETGVPSRFSGSGSGTDFTFTISSLQPEDIATYYCQQSDNLPLTFGGGTKVEIKR
B11: mAb10936 (antibody, V domains shown)
VH: QVQLVESGGGVVQPGRSLRLSCAASGFTFRNYGMHWVRQAPGKGLEWVSVIWYDGSNRYYADSVKGRFTISRDTSKNTLYLQMNSLRAEDTAVYYCARDPPITGTTGGDAFDIWGQGTMVTVSS
VL: not shown
B12: mAb10937 (antibody, V domains shown)
VH: QITLKESGPTLVKPTQTLTLTCTFSGFSLSTNVVGVGWIRQPPGKALEWLALIYWNDDKRYSPSLKSRLTITKDTSKNQVVLTMTNMDPVDTATYYCAHGPTGDYFDYWGQGTLVTVSS
VL: not shown
B13: mAb10938 (antibody, V domains shown)
VH: EVQLVESGGGLVQPGGSLRLSCAVSGFTVSSNYMSWVRQAPGKGLEWVSLIYSGGSTFYADSVKGRFTISRHNSKNTLYLQMNSLRAEDTAVYYCAREGGYSYDYNYWGQGTLVTVSS
VL: DIQMTQSPSSLSASVGDRVTITCQASQDIRNYLNWYQQKPGKAPKLLIYDASNLETGVPSRFSGIGSGTDFTFTISSLQPEDIATYYCQQYDNLPITFGQGTRLEIKR
B14: mAb10939 (antibody, V domains shown)
VH: EVQLVESGGGLVQPGGSLRLSCAASGLTVSSNYMNWVRQVPGKGLEWVSVIYSGGSKFYVDSVKGRFTISRHNSKNTLYLQMNSLRPEDTAVYYCTRDAQYYGMDVWGQGTTVTVSS
VL: DIQMTQSPSSLSASVGDRVTITCRASQSISTYLHWYQQKPGEAPKLLIYAASSLQSGVPSRFSGSGSGTDFTLTISSLQPEDFATYYCQQSYSTPPEIFGQGTKLEIKR
B15: mAb10954 (antibody, V domains shown)
VH: EVQLVESGGGLVQPGGSLRLSCAASGITVSSNYMSWVRQAPGKGLEWVSLIYSGGSTYYADSVKGRFTISRDNSKNTLYLQMNSLRVEDTAVYYCARDHGMAAAGYNYWGQGTLVTVSS
VL: DIQMTQSPSSLSASVGDRVTITCQASQDINKYLNWYQQKPGKAPKLLIYDASNLETGVPSRFSGSGSGTDFTFTINSLQPEDFATYFCQQYDNLPPAFGQGTKVEIKR
B16: mAb10955 (antibody, V domains shown)
VH: EVQLVESGGGLVQPGGSLRVSCAASGFTVSRNYMSWVRQAPGKGLEWVSVIYSGGSTFYADSVKGRFTISRDNSKNTLYLQMNSLRAEDTAIYYCARYIPRFDPWGQGTLVTVSS
VL: DIQMTQSPSSLSASVGDRVTITCQASQDISNYLNWFQQKPGRAPKLLIYDASNLETGVPSRFSGSGSGTDFTFTISSLQPEDIATYYCQQYDNLPITFGQGTRLEIKR
B17: mAb10956 (antibody, V domains shown)
VH: EVQLVESGGGLVQPGGSLRLSCAASGLTVSSNYMSWVRQAPGKGLEWVSVIYSGGSTFYADSVKGRFTISRDNSKNTLYLQMNSLRAEDTAVYYCARDLIKYGMDVWGQGTTVTVSS
VL: not shown
B18: mAb10957 (antibody, V domains shown)
VH: EVQLVESGGGLVQPGGSLRLSCAASGVTVSSNYMSWVRQAPGKGLEWVSVIYSGGSTFYADSVKGRFTISRDNSKNTLFLQMNSLRIEDTAVYYCARDLGPYGMDVWGQGTTVTVSS
VL: DIQLTQSPSFLSASVGDRVTITCRASQGISSYLAWYQQKPGKAPKLLIYAASTLQSGVPSRFSGSGSGTQFILTISSLQPEDFATYYCQQLNSYPGFTFGPGTKVDIKR
B19: mAb10964 (antibody, V domains shown)
VH: QVQLQESGPGLVKPSETLSLTCTVSGGSINNYYWIWIRQPPGKGLEWIGYIYHSGSTNYNPSLKSRVTISVDTSKNQFSLKVSSVTAADTAVYYCANMVRGVYEDDYWGQGTLVTVSS
VL: DIQMTQSPSSLSASVGDRVTITCRASQSISNYLNWYQQKPGKAPKLLIFAASSLRSGVPSRFSGSGSGTDFTLTISSLHPEDFATYYCQQNYNTPLTFGPGTKVDIKR
B20: mAb10965 (antibody, V domains shown)
VH: EVQLVESGGGLIQPGGSLRLSCAASVFTVSYNYMSWVRQAPGKGLEWVSVIYSGGSTYYADSVKGRFTISRDNSKNTLYLQMNSLRAEDTAVYYCARALPGWGGSFEYFDYWGQGTLVTVSS
VL: not shown
B21: mAb10966 (antibody, V domains shown)
VH: EVQLVESGGGLVQPGGSLRLSCAASGLTVSSNYMSWVRQAPGKGLEWVSVIYSGGSTFYADSVKGRFTISRDNSKNTLYLQMNSLRPEDTAVYYCAREGRIAATGYGMDVWGQGTTVTVSS
VL: not shown
B22: mAb10967 (antibody, V domains shown)
VH: EVQLVESGGGLVQPGGSLRLSCAASGFTVSSNYMSWVRQAPGKGLEWVSVIYPGGSTFYADSVKGRFTISRDNSKNTLYLQMNSLRAEDTAVYYCARDQRDFAWGQGTLVTVSS
VL: DIQMTQSPSSLSASVGDRVTITCQASQDISNYLNWYQQKPGKAPKLLIYDASNLETGVPSRFSGSGSGTDFTFTISGLQPEDIATYYCQQYDNLPPTFGQGTRLEIKR
B23: mAb10971 (antibody, V domains shown)
VH: EVQLVESGGGLIQPGGSLRLSCAASGVTVSSNYMSWVRQAPGKGLEWVSVIYSGGSTFYSDSVKGRFSISRDNSKNTLYLQMNSLRAEDTAVYYCARDLYYYGMDVWGQGTTVTVSS
VL: DIQLTQSPSFLSASVGDRVTITCRASQGISTYLAWYQQKPGKAPKLLIYAASTLQSGVPSRFSGSGSGTEFTLTISSLQPEDFATYYCQQLDSYPGLTFGGGTKVEIKR
B24: mAb10982 (antibody, V domains shown)
VH: EVQLVESGGGLVQPGGSLRLSCAASGLTVSSNYMSWVRQAPGKGLEWVSVIYSGGTTYYADSVKGRFTISRHNSKNTLSLQMNSLRAEDTAVYYCARGEGANYYGMDVWGQGTTVTVSS
VL: QSVLTQPPSVSGAPGQRVTISCTGSSSNIGTGYDVHWYQQLPGTAPKLLIYGNSNRPSGVPDRFSGSKSGTSASLAITGLQAEDEADYYCQSYDSSLSGYVVFGGGTKLTVLG
B25: mAb10984 (antibody, V domains shown)
VH: EVQLVESGGGLVQPGGSLRLSCAASGLTVNRNYMSWVRQAPGKGLEWVSLIYSGGSTYYADSVKGRFTISRDNSKNTLYLQMNSLRLEDTAVYYCARGELGIPYGMDVWGQGTTVTVSS
VL: QSVLTQPPSVSAAPGQKVTISCSGSSSNIGNNYVSWYQQLPGTAPKLLIYDNNKRPSGIPDRFSGSKSGTSATLGITGLQTGDEADYYCGTWDSSLSAGVFGGGTKLTVLG
B26: mAb10985 (antibody, V domains shown)
VH: EVQLVESGGGLVQPGRSLRLSCAASGFTFDDYAMHWVRQAPGKGLEWVSGISWNRGSIGYADSVKGRFTISRDNAKNSLYLQMSSLRAEDTALYYCAKDGERWDSVVVPSARNGMDVWGQGTTVTVSS
VL: QSVLTQPPSVSGAPGQRVTISCTGSSSNIGAGYDVHWYQQLPGTAPKLLIYGNSNRPSGVPDRFSGSKSGTSASLAITGLQAEDEADYYCQSYDSSLSGSYVFGTGTKVTVLG

Biological target: SARS-COV-2 Spike protein receptor binding domain (amino acids Arg319-Phe541) expressed with the Fc p (SARS-CoV-2)

Row | Binder | IC50
1 | B1 | 0.217 nM
2 | B2 | 0.98 nM
3 | B3 | 0.321 nM
4 | B4 | 0.338 nM and 0.139 nM
5 | B5 | 0.433 nM and 0.507 nM
6 | B6 | 0.149 nM and 0.184 nM
7 | B7 | 0.282 nM
8 | B8 | 0.373 nM
9 | B9 | 0.066 nM and 0.0597 nM
10 | B10 | 0.102 nM and 0.0694 nM
11 | B11 | 0.0875 nM and 0.071 nM
12 | B12 | 0.0649 nM
13 | B13 | 0.275 nM
14 | B14 | 0.175 nM and 0.263 nM
15 | B15 | 0.0711 nM
16 | B16 | 0.141 nM
17 | B17 | 0.185 nM
18 | B18 | 0.169 nM
19 | B19 | 0.0683 nM and 0.0625 nM
20 | B20 | 0.213 nM
21 | B21 | 0.16 nM
22 | B22 | 0.28 nM
23 | B23 | 0.149 nM
24 | B24 | 0.116 nM
25 | B25 | 0.0775 nM
26 | B26 | 0.0696 nM and 0.0411 nM
